Test results as given in the supplement of paper PMC10724198.
± gives the standard deviation of the averaged measurements.

What was measured:
Saccharomyces cerevisiae [1] = assay: protein stability index of tFT-peptide fusion (C-terminal peptide) (PSI (0-1 scale)); higher = more stable (slower turnover)
Experimental: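 MPS profiling in S. cerevisiae of the tFT-X12 degron library: putative degron peptides plus stable controls, 12 aa, fused to the C-terminus of a sfGFP-mCherry timer. Cells are FACS-sorted into 8 mCherry/sfGFP bins and deep-sequenced. PSI runs from 0 (unstable) to 1 (stable). Backgrounds are wild type, das1Δ and doa10Δ at 30 °C, and wild type, das1Δ, cdc34-1 and cdc53-1 at 37 °C; 2-3 technical replicates each.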

Saccharomyces cerevisiae [2] = assay: as above; conditions: genetic background: wild type; temperature: 30 C
[3] = genetic background: cdc34-1, temperature: 37 C
[4] = genetic background: cdc53-1, temperature: 37 C
[5] = genetic background: das1 deletion, temperature: 30 C
[6] = genetic background: das1 deletion, temperature: 37 C
[7] = genetic background: doa10 deletion, temperature: 30 C
[8] = genetic background: wild type, temperature: 30 C
[9] = genetic background: wild type, temperature: 37 C
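Further: PSI is a weighted mean of sequencing reads over stability bins, variants kept only with over 10 reads, mCherry proximal and sfGFP distal, peptide attached via GGGS linker.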

Row | Sequence | protein stability index (Saccharomyces cerevisiae [1]; [3]) | protein stability index (Saccharomyces cerevisiae [1]; [4]) | protein stability index (Saccharomyces cerevisiae [1]; [5]) | protein stability index (Saccharomyces cerevisiae [1]; [6]) | protein stability index (Saccharomyces cerevisiae [1]; [7]) | protein stability index (Saccharomyces cerevisiae [1]; [8]) | protein stability index (Saccharomyces cerevisiae [1]; [9]) | protein stability index (Saccharomyces cerevisiae [2])
1 | PRGKGSSGELCV | 0.683 ± 0.038 | 0.7344 ± 0.0044 | 0.662 ± 0.025 | 0.707 ± 0.03 | 0.6363 ± 0.0063 | 0.647 ± 0.033 | 0.712 ± 0.012 | 0.578 ± 0.15
2 | PLCCFFLLVCSH | 0.117 ± 0.022 | 0.166 ± 0.005 | 0.193 ± 0.019 | 0.2814 ± 0.002 | 0.165 ± 0.0015 | 0.176 ± 0.0079 | 0.221 ± 0.014 | 0.246 ± 0.023
3 | WFWTFIWLIMDD | 0.435 ± 0.049 | 0.501 ± 0.044 | 0.388 ± 0.016 | 0.521 ± 0.025 | 0.399 ± 0.027 | 0.41 ± 0.039 | 0.504 ± 0.043 | 0.439 ± 0.0064
4 | TFRVLREIILTA | 0.2 ± 0.021 | 0.228 ± 0.021 | 0.206 ± 0.029 | 0.33 ± 0.023 | 0.151 ± 0.011 | 0.178 ± 0.024 | 0.277 ± 0.0079 | 0.249 ± 0.0078
5 | RRFKINKKNKKF | 0.683 ± 0.028 | 0.749 ± 0.035 | 0.64 ± 0.048 | 0.761 ± 0.016 | 0.172 ± 0.026 | 0.189 ± 0.061 | 0.524 ± 0.12 | 0.339 ± 0.052
6 | WRIDVTIVCLGY | 0.157 ± 0.03 | 0.256 ± 0.042 | 0.19 ± 0.033 | 0.3084 ± 0.0029 | 0.169 ± 0.01 | 0.202 ± 0.029 | 0.294 ± 0.019 | 0.3 ± 0.03
7 | WGRTIGATFTGR | 0.698 ± 0.029 | 0.779 ± 0.0021 | 0.644 ± 0.024 | 0.748 ± 0.0085 | 0.669 ± 0.01 | 0.685 ± 0.013 | 0.746 ± 0.019 | 0.595 ± 0.15
8 | GGAVGVRGGCRG | 0.565 ± 0.12 | 0.7112 ± 0.0027 | 0.496 ± 0.017 | 0.635 ± 0.036 | 0.522 ± 0.05 | 0.512 ± 0.027 | 0.607 ± 0.026 | 0.452 ± 0.033
9 | GIIRVSSQVIVR | 0.565 ± 0.0072 | 0.607 ± 0.018 | 0.445 ± 0.026 | 0.617 ± 0.0065 | 0.422 ± 0.012 | 0.443 ± 0.0097 | 0.5905 ± 0.0054 | 0.523 ± 0.035
10 | DRRFLVMISVSL | 0.33 ± 0.01 | 0.357 ± 0.016 | 0.272 ± 0.045 | 0.458 ± 0.008 | 0.251 ± 0.0083 | 0.262 ± 0.028 | 0.414 ± 0.0086 | 0.398 ± 0.039
11 | FVFLCLLCISSF | 0.202 ± 0.0059 | 0.286 ± 0.011 | 0.214 ± 0.027 | 0.355 ± 0.006 | 0.193 ± 0.01 | 0.2 ± 0.03 | 0.3152 ± 0.0017 | 0.278 ± 0.012
12 | AIREVQYSFFPS | 0.681 ± 0.041 | 0.755 ± 0.018 | 0.652 ± 0.0074 | 0.7527 ± 0.0042 | 0.6445 ± 0.0018 | 0.66 ± 0.012 | 0.723 ± 0.016 | 0.715 ± 0.021
13 | FFLSAFFFFFLF | 0.342 ± 0.04 | 0.346 ± 0.017 | 0.359 ± 0.015 | 0.4409 ± 0.0039 | 0.3669 ± 0.002 | 0.291 ± 0.027 | 0.36913 ± 0.00026 | 0.361 ± 0.0086
14 | SFYVWILLWSYY | 0.26 ± 0.0071 | 0.256 ± 0.012 | 0.252 ± 0.023 | 0.384 ± 0.032 | 0.223 ± 0.015 | 0.214 ± 0.024 | 0.323 ± 0.014 | 0.294 ± 0.021
15 | FLVLLFCLFFCF | 0.463 ± 0.053 | 0.447 ± 0.021 | 0.43 ± 0.024 | 0.552 ± 0.015 | 0.524 ± 0.007 | 0.43 ± 0.033 | 0.4952 ± 0.0042 | 0.462 ± 0.026
16 | LLSLTLALPLAA | 0.392 ± 0.0064 | 0.434 ± 0.014 | 0.337 ± 0.034 | 0.461 ± 0.0074 | 0.296 ± 0.0033 | 0.349 ± 0.022 | 0.4518 ± 0.0011 | 0.455 ± 0.047
17 | HVLLSSSASIVV | 0.623 ± 0.015 | 0.6613 ± 0.0046 | 0.534 ± 0.019 | 0.6449 ± 0.0028 | 0.534 ± 0.03 | 0.529 ± 0.026 | 0.63 ± 0.047 | 0.536 ± 0.058
18 | FWFVSVFIVFFC | 0.185 ± 0.0033 | 0.26 ± 0.021 | 0.222 ± 0.043 | 0.337 ± 0.022 | 0.179 ± 0.018 | 0.164 ± 0.034 | 0.279 ± 0.018 | 0.223 ± 0.026
19 | RHSFSRVKLIQF | 0.593 ± 0.046 | 0.6834 ± 0.00096 | 0.65 ± 0.032 | 0.732 ± 0.0089 | 0.0871 ± 0.021 | 0.0925 ± 0.033 | 0.117 ± 0.0029 | 0.113 ± 0.033
